Results: the supplement of paper PMC9170038

System: MS2 coat protein
Experiment: apparent KD of MS2 coat protein; designed switch direction (-1 OFF switch, 1 ON switch): 1; higher = weaker reporter binding
Outline: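 Designed RNA switches sharing common flanks were transcribed on Illumina chips by stalled E. coli RNA polymerase. They were titrated with SNAP-549-labelled MS2 coat protein, from 0.7 or 1.5 nM doubling to 3 µM, in Tris-HCl pH 7.5 buffer with KCl, MgCl2, BSA, DTT, tRNA and Tween-20. Titrations ran without input, with 200 uM small-molecule ligand, or with an oligonucleotide input. The apparent KD of each design is the median over its clusters, after curve-fitting of normalised cluster fluorescence.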

[1] = input ligand: microRNA oligo, concentration not stated
[2] = Eterna round: R95, input ligand: microRNA oligo, concentration not stated
[3] = Eterna round: R95, input ligand: FMN 200 uM
[4] = Eterna round: R95, input ligand: none

Row | Sequence | apparent KD of MS2 coat protein [1] [nM] | apparent KD of MS2 coat protein [2] [nM] | apparent KD of MS2 coat protein [3] [nM] | apparent KD of MS2 coat protein [4] [nM] | apparent KD of MS2 coat protein (input ligand: FMN 200 uM) [nM] | apparent KD of MS2 coat protein (input ligand: none) [nM]
1 | AUGCCAAAAGGAGGAUAUGGAGCCUUAUUGGCUCCAGAAGGCUUGACAUGAGGAUCACCCAUGUGGCAGUGGUCUAAUGACCAC [Eli NG1ss - 43] (Eterna round: R96, puzzle: Same State NG 1) | 13.7 |  |  |  |  | 
2 | AGCGAGAUAGGCAAGGAUAUGCUGGGUUUCACAUGAGGAUCACCCAUGUCAUUGGUUAUGUCCGAGCAGAAGGUGCAUUCUCUUU [ak bound state multiloop solution 2] (puzzle: Same State 2) |  | 250 |  |  |  | 
3 | AGGGAGGAGGCUGAGGAUAUCGUAAGGAGGACAUGAGGAUCACCCAUGUGUAUAGGAUUGGAGGACGAGAAGGCAGAGGAGUGGG [JR_SS2_Sub050] (puzzle: Same State 2) |  | 26.6 | 41.1 | 28.9 |  | 
4 | GUGGUCUGACAUGAGGAUCACCCAUGUGGAAUAAAUACGGGUCAGGAUAUCUUGAGGAUCACCCAAGAGAAGGGACGGAUUGUU (Eterna round: R96, puzzle: Same State NG 3) | 23.5 |  |  |  | 24 | 35.1
5 | AGAAAACAUGAGGAUCACCCAUGUAGAAAUAUGGGAGGAUAUACAAAGACGAAAGUCGAGGUAGAAGGCCUAAAGA [Mat - Same State 1 - Meechl mod - D122] (Eterna round: R96, puzzle: Same State 1) | 77.9 |  |  |  |  | 
6 | AGACACAUGAGGAUCACCCAUGUCAUGAGCUUAGCUCGGGCACAGGAUAUCCGGUCCUAGAGACCGGAGAAGGGUGGCCGAAAA [Zara MOD] (Eterna round: R96, puzzle: Same State NG 3) | 323 |  |  |  | 396 | 670
7 | AUAAAACAUGAGGAUCACCCAUGUCAACAAAAUCGAGGAUAUGGACAGACUUCGGUCUGUCCAGAAGGCGAAUAAU [salish99_ss1_r3_100] (Eterna round: R96, puzzle: Same State 1) | 12.7 |  |  |  | 15.1 | 17.4
8 | AUUUUUAAUGCAGGAUAUGAUUAACAUGAGGAUCACCCAUGUGGUGUUGUGAGUAAGGAGAGUGAUCAGAAGGGCAUUUUUUCA [SS-NG2-LRO01] (Eterna round: R96, puzzle: Same State NG 2) | 495 |  |  |  | 838 | 533
9 | AUUAGUUGCGGGCAGGAUAUGUAUUAAAAUACAUGAGGAUCACCCAUGUGCGGGUAUAACACCCGACAGAAGGGCCAAUCGCGAC [Mat - Same State 2 - Mod of UCT - D93] (puzzle: Same State 2) |  | 250 | 25.4 | 409 |  | 
10 | AUUAAACAUGAGGAUCACCCAUGUCAACAAAGUCGAGGAUAUGGGCAAAUAAAAUAAGUACCAGAAGGCGAAUAAU [salish99_ss1_r3_066] (Eterna round: R96, puzzle: Same State 1) | 66.1 |  |  |  | 21.4 | 103
11 | CCGAUGCUUAUAAAACAUGAGGAUCACCCAUGUGAGACACAUGAGGAUAUGCAGGUCAAAGACUUGCAGAAGGCAUAGCGUCGG [JL SSNG3 3.88] (Eterna round: R96, puzzle: Same State NG 3) | 360 |  |  |  |  | 
12 | GUAGCAUACCGAGGAUAUUCAUAUUAUAACAUGAGGAUCACCCAUGUAGGCCGAUUACGGCCUUGGGAGAAGGCGGAAUGCUAC [Xeonanis - 20 Mod19] (Eterna round: R96, puzzle: Same State NG 2) | 229 |  |  |  | 27.9 | 342
13 | AGUCCAGCAUAAGCUGGACAAAAGCAUGUACAUGAGGAUCACCCAUGUUCAUGUACAAGCUUUUUGCUCGUCAAAAG [Mat - hsa-mir-208a - Mod of JL - 71] (puzzle: Sensor for hsa-mir-208a) |  | 22.6 | 215 | 297 |  | 
